The values that follow come from publication PMC10716131, “Structural and biophysical comparisons of the pomalidomide- and CC-220-induced interactions of SALL4 with cereblon” (Scientific Reports, 2023).

The test has as its target T1, DDB1:CRBN complex, full-length human CRBN (residues 1–442) with N-terminal biotinylated Avi-tag, co-expressed … (human, UniProt Q96SW2 1-442; Q16531 1-1140, biotin on the Avi-tag (BirA, 100% efficiency)).
T1 construct: cereblon (CRBN), human, full-length, residues 1–442; DDB1, human, residues 1–1140; A 6xGS linker stands between the non-cleavable Avi-tag and CRBN; The host is named (Sf21) only for the crystallisation construct; also called DDB1:N-avi-biotin-CRBN; DDB1:N-avi-CRBN; source: biotinylated with BirA; not shown: Avi-tag, N-terminal, kept
Put plainly: SPR; DDB1:N-avi-biotin-CRBN immobilised on a streptavidin sensor (~5000–7000 RU), Biacore 8k, ABA method; SALL4 zinc fingers in 2X dilution series with 5 μM pomalidomide throughout; PBS pH 7.2, 5% glycerol, total NaCl ~300 mM, 0.01% P20, 1 mM TCEP, 0.05% DMSO; 15 °C; 30 µL/minute; 1:1 kinetic modelling. As to conditions: both partners purified. (In SPR one partner is held on a chip, and binding of the other changes the refractive index at the surface.)

T1 sequence (Q96SW2 whole entry, chain 1 of 2, the tested form may be a part): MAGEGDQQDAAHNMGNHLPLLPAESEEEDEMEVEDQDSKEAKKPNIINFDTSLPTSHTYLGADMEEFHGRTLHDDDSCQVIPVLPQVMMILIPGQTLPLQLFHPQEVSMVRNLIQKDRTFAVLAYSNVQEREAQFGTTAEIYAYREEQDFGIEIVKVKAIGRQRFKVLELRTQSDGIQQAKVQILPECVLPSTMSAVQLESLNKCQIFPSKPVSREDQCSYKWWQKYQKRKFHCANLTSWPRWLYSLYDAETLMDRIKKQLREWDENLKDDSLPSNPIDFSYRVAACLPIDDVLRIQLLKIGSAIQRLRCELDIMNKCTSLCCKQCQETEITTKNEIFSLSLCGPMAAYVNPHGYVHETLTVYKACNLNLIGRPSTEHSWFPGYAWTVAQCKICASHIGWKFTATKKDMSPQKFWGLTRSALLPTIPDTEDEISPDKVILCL
T1 sequence (Q16531 whole entry, chain 2 of 2, the tested form may be a part): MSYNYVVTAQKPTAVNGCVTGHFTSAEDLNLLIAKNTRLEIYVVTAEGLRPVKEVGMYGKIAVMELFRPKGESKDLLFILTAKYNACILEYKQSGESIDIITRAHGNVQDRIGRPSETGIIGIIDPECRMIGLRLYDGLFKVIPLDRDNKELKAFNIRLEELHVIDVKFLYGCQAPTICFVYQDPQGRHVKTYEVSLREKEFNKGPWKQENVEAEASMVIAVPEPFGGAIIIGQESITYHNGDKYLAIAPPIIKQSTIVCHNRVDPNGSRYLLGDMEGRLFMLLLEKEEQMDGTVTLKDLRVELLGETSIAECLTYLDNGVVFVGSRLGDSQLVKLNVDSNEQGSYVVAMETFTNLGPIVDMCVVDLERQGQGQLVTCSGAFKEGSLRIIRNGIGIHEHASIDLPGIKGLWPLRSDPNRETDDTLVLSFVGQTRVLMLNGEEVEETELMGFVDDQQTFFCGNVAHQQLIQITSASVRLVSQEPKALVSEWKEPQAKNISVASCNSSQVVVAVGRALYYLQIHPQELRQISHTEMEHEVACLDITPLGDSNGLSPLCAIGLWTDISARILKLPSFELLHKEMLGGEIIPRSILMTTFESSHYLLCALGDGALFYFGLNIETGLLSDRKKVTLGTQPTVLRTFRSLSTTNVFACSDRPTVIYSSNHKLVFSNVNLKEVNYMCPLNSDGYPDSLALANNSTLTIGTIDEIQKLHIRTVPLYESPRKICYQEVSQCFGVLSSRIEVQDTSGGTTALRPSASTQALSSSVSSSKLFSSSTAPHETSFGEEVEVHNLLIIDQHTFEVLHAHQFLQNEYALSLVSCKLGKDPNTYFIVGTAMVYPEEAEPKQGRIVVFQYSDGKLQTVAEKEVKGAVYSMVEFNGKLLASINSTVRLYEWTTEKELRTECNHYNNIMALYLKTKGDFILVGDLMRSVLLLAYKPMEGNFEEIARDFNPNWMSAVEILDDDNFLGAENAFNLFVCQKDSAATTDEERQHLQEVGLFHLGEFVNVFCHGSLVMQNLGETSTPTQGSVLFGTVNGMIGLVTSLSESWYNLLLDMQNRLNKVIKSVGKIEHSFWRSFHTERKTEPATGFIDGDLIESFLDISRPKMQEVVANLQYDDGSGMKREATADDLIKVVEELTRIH

B1: Human SALL4 ZF1(370–409) (domain or fragment, UniProt Q9UJQ4 370-409, looked up)
chain: DVKPKDEAALYKHKCKYCSKVFGTDSSLQIHLRSHTGERP
notes: not shown: Twin-Strep-ZZ, N-terminal, cleaved
As for B1, the KD with pomalidomide was above 50 µM.
